The record followed here is paper PMC12316933.

The stoichiometry N is a count of units in the complex or per binding partner.

This assay concerns the target CA09 N1 sNAp (stabilized recombinant N1 neuraminidase head of H1N1 A/California/07/2009) (Influenza A virus H1N1 A/California/07/2009). Description: cryo-EM structure.

With “CA09 N1 sNAp (stabilized recombinant N1 neuraminidase head of H1N1 A/California/07/2009) (enzyme)”, the stoichiometry N came out at 4.
